Laboratory results from publication PMC2141752 (The Journal of Cell Biology, 1998).

B1: α–caveolin-1 (natural protein)
chain: MSGGKYVDSEGHLYTVPIREQGNIYKPNNKAMAEEMSEKQVYDAHTKEIDLVNRDPKHLNDDVVKIDFEDVIAEPEGTHSFDGIWKASFTTFTVTKYWFYRLLSALFGIPMALIWGIYFAILSFLHIWAVVPCIKSFLIEIQCISRVYSIYVHTFCDPFFEAVGKIFSNIRINMQKET
B2: β–caveolin-1 (natural protein)
chain: MAEEMSEKQVYDAHTKEIDLVNRDPKHLNDDVVKIDFEDVIAEPEGTHSFDGIWKASFTTFTVTKYWFYRLLSALFGIPMALIWGIYFAILSFLHIWAVVPCIKSFLIEIQCISRVYSIYVHTFCDPFFEAVGKIFSNIRINMQKET
B3: canine caveolin-2 (natural protein)
chain: MGLETEKADVQLCMDDDAYSRHSAVDFGDLEQLADSGSDRDPRRLNSHLQVGFEDVIAEPVSTHSFDKVWICSHALFEVSKYVIYKFLTLLLAMPMAFAAGVLFATLSCLHIWIIMPFVKTCLMVLPSVQTIWKSVTDAVIAPLCSSVGRSFSSVSLQVSHD
modifications: phosphorylated at steady state (sites not given)

How the values were obtained:
canine caveolin-2 = biological target: B3; assay: co-IP
α–caveolin-1 = biological target: B1; assay: co-IP

Binder	ratio in the immunoprecipitate (canine caveolin-2)	ratio in the immunoprecipitate (α–caveolin-1)
B1	~1 α–caveolin-1 per caveolin-2	
B2	~1 β–caveolin-1 per caveolin-2	~1 β–caveolin-1 per α–caveolin-1
B3		~0.5 caveolin-2 per α–caveolin-1
